# Reference: US20260049138A1 (Chugai, published 2026)
# Residue numbers refer to the chain shown, from its start. Names may count otherwise.
# B1: GLS3000 N30T one-arm antibody (antibody, human IgG1, kappa, L234A L235A, N297A, name in Kabat numbering)
# heavy: QVQLVESGGGVVQPGRSLRLSCAASGFTFSNAWMHWVRQAPGKGLEWVAQIKAKSNNYATYYAESVKGRFTISRDDSKNSLYLQMNSLKTEDTAVYYCRYVHYGAYYGVDAWGQGTTVTVSSASTKGPSVFPLAPSSKSTSGGTAALGCLVKDYFPEPVTVSWNSGALTSGVHTFPAVLQSSGLYSLSSVVTVPSSSLGTQTYICNVNHKPSNTKVDKKVEPKSCDKTHTCPPCPAPEAAGGPSVFLFPPKPKDTLMISRTPEVTCVVVDVSHEDPEVKFNWYVDGVEVHNAKTKPREEQYASTYRVVSVLTVLHQDWLNGKEYKCKVSNKALPAPIEKTISKAKGQPREPQVYTLPPSRCELTKNQVSLSCAVKGFYPSDIAVEWESNGQPENNYKTTPPVLDSDGSFFLVSKLTVDKSRWQQGNVFSCSVMHEALHNHYTQKSLSLSPDYKDDDDK
# chain: EPKSSDKTHTCPPCPAPELLGGPSVFLFPPKPKDTLMISRTPEVTCVVVDVSHEDPEVKFNWYVDGVEVHNAKTKPREEQYNSTYRVVSVLTVLHQDWLNGKEYKCKVSNKALPAPIEKTISKAKGQPREPQVCTLPPSRDELTKNQVSLWCLVKGFYPSDIAVEWESNGQPENNYKTTPPVLDSDGSFFLYSKLTVDKSRWQQGNVFSCSVMHEALHNRYTQKSLSLSP
# light: DIVMTQSPLSLPVTPGEPASISCRSSQSLVHSNRTTYLHWYQQKPGQAPRLLIYKVSNRFSGVPDRFSGSGSGTDFTLKISRVEAEDVGVYYCGQGTQVPYTFGQGTKLEIKRTVAAPSVFIFPPSDEQLKSGTASVVCLLNNFYPREAKVQWKVDNALQSGNSQESVTEQDSKDSTYSLSSTLTLSKADYEKHKVYACEVTHQGLSSPVTKSFNRGEC
# B2: GLS3000 N53M one-arm antibody (antibody, human IgG1, kappa, L234A L235A, N297A, name in Kabat numbering)
# heavy: B1 heavy
# chain: B1 chain
# light: B1 light with T35N, N58M
# B3: GLS3000 N53G one-arm antibody (antibody, human IgG1, kappa, L234A L235A, N297A, name in Kabat numbering)
# heavy: B1 heavy
# chain: B1 chain
# light: B1 light with T35N, N58G
# B4: GLS3000 N53E one-arm antibody (antibody, human IgG1, kappa, L234A L235A, N297A, name in Kabat numbering)
# heavy: B1 heavy
# chain: B1 chain
# light: B1 light with T35N, N58E
# B5: GLS3000 N53S one-arm antibody (antibody, human IgG1, kappa, L234A L235A, N297A, name in Kabat numbering)
# heavy: B1 heavy
# chain: B1 chain
# light: B1 light with T35N, N58S
# B6: GLS3000 N53A one-arm antibody (antibody, human IgG1, kappa, L234A L235A, N297A, name in Kabat numbering)
# heavy: B1 heavy
# chain: B1 chain
# light: B1 light with T35N, N58A
# B7: GLS3000 N53F one-arm antibody (antibody, human IgG1, kappa, L234A L235A, N297A, name in Kabat numbering)
# heavy: B1 heavy
# chain: B1 chain
# light: B1 light with T35N, N58F
# B8: GLS3000 N53R one-arm antibody (antibody, human IgG1, kappa, L234A L235A, N297A, name in Kabat numbering)
# heavy: B1 heavy
# chain: B1 chain
# light: B1 light with T35N, N58R
# B9: GLS3000 N53W one-arm antibody (antibody, human IgG1, kappa, L234A L235A, N297A, name in Kabat numbering)
# heavy: B1 heavy
# chain: B1 chain
# light: B1 light with T35N, N58W
# B10: GLS3000 N53Q one-arm antibody (antibody, human IgG1, kappa, L234A L235A, N297A, name in Kabat numbering)
# heavy: B1 heavy
# chain: B1 chain
# light: B1 light with T35N, N58Q
# B11: GLS3000 N53D one-arm antibody (antibody, human IgG1, kappa, L234A L235A, N297A, name in Kabat numbering)
# heavy: B1 heavy
# chain: B1 chain
# light: B1 light with T35N, N58D
# B12: GLS3000 N53H one-arm antibody (antibody, human IgG1, kappa, L234A L235A, N297A, name in Kabat numbering)
# heavy: B1 heavy
# chain: B1 chain
# light: B1 light with T35N, N58H
# B13: GLS3000 N53Y one-arm antibody (antibody, human IgG1, kappa, L234A L235A, N297A, name in Kabat numbering)
# heavy: B1 heavy
# chain: B1 chain
# light: B1 light with T35N, N58Y
# B14: GLS3000 N53V one-arm antibody (antibody, human IgG1, kappa, L234A L235A, N297A, name in Kabat numbering)
# heavy: B1 heavy
# chain: B1 chain
# light: B1 light with T35N, N58V
# B15: GLS3000 N53K one-arm antibody (antibody, human IgG1, kappa, L234A L235A, N297A, name in Kabat numbering)
# heavy: B1 heavy
# chain: B1 chain
# light: B1 light with T35N, N58K
# B16: GLS3000 N53I one-arm antibody (antibody, human IgG1, kappa, L234A L235A, N297A, name in Kabat numbering)
# heavy: B1 heavy
# chain: B1 chain
# light: B1 light with T35N, N58I
# B17: GLS3000 N53P one-arm antibody (antibody, human IgG1, kappa, L234A L235A, N297A, name in Kabat numbering)
# heavy: B1 heavy
# chain: B1 chain
# light: B1 light with T35N, N58P
# B18: GLS3000 N30V one-arm antibody (antibody, human IgG1, kappa, L234A L235A, N297A, name in Kabat numbering)
# heavy: B1 heavy
# chain: B1 chain
# light: B1 light with T35V
# B19: GLS3000 N30W one-arm antibody (antibody, human IgG1, kappa, L234A L235A, N297A, name in Kabat numbering)
# heavy: B1 heavy
# chain: B1 chain
# light: B1 light with T35W
# B20: GLS3000 N53L one-arm antibody (antibody, human IgG1, kappa, L234A L235A, N297A, name in Kabat numbering)
# heavy: B1 heavy
# chain: B1 chain
# light: B1 light with T35N, N58L
# B21: GLS3000 N30Y one-arm antibody (antibody, human IgG1, kappa, L234A L235A, N297A, name in Kabat numbering)
# heavy: B1 heavy
# chain: B1 chain
# light: B1 light with T35Y
# B22: GLS3000 N53T one-arm antibody (antibody, human IgG1, kappa, L234A L235A, N297A, name in Kabat numbering)
# heavy: B1 heavy
# chain: B1 chain
# light: B1 light with T35N, N58T
# Molecular target: T1, CD3ε homodimer protein (human, UniProt P07766 23-126, limits assumed)
# T1 construct: also called CD3 (CD3ε)
# Test: SPR Biacore T200, CD3ε homodimer on chip;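 also: Light-chain single-residue variant antibodies injected over amine-coupled CD3ε homodimer on a CM4 chip at 25 °C, bound amount divided by that of the GLS3000-containing antibody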
# T1 sequence (P07766 23-126 limits assumed): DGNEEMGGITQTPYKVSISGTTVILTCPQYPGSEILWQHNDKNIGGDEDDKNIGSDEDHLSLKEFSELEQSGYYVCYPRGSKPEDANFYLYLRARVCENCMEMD
row,ratio of amount bound vs unaltered GLS3000,Binder
1,0.29,B1
2,0.62,B2
3,0.76,B3
4,0.54,B4
5,0.69,B5
6,0.61,B6
7,0.69,B7
8,1.58,B8
9,0.81,B9
10,0.77,B10
11,0.34,B11
12,1.18,B12
13,0.67,B13
14,0.56,B14
15,1.08,B15
16,0.5,B16
17,0.81,B17
18,0.61,B18
19,0.99,B19
20,0.56,B20
21,1.04,B21
22,0.56,B22
